Results reported in publication PMC9640981, “Plant vernalization proteins contain unusual PHD superdomains without histone H3 binding activity” (The Journal of Biological Chemistry, 2022).

Target: Arabidopsis thaliana (At) OBE1_(193-372), PHD superdomain of OBERON 1 (A. thaliana) (UniProt Q9S736)
Assay: ITC; 25 °C, iTC 200; 25 mM Tris pH 8, 150 mM NaCl, 1 mM DTT; 19 injections of 2 μl of 0.25 to 1 mM peptide into 50 μM protein

Substance: H3K4me2 (1–15) histone H3 tail peptide (from UniProt P68431 2-16)
- Kd: 1900 nM
